From patent publication US20020150885

How the values were obtained:
[1] = target: T1, N-Ac-LEVD-N′-ethoxycarbonyl R110 SEQ ID NO:9
T1 chain: LEVD

[2] = target: T2, (Z-YVAD)2-Rhodamine 110 SEQ ID NO:2
T2 chain: YVAD

[3] = target: T3, N-(Z-VAD)-N′-acetyl-Rhodamine 110
T3 chain: VAD

(Z-VAD)2-Rhodamine 110 = target: T4, (Z-VAD)2-Rhodamine 110
T4 chain: VAD

[4] = target: T5, N-(Z-YVAD)-N′-acetyl-Rhodamine 110 SEQ ID NO:2
T5 chain: YVAD

[5] = target: T6, N-(Z-DEVD)-N′-acetyl-Rhodamine 110 SEQ ID NO:5
T6 chain: DEVD

[6] = target: T7, N-(Z-VD)-N′-acetyl-Rhodamine 110
T7 chain: VD

[7] = target: T8, N-Z-EVD-N′-ethoxycarbonyl-R110
T8 chain: EVD

[8] = target: T9, N-Ac-DEVD-N′-hexyloxycarbonyl-R110 SEQ ID NO:5
T9 chain: DEVD

[9] = target: T10, N-Z-VD-N′-ethoxycarbonyl-R110
T10 chain: VD

[10] = target: T11, N-Ac-DEVD-N′-octyloxycarbonyl-R110 SEQ ID NO:5
T11 chain: DEVD

[11] = target: T12, N-Z-DEVD-N′-ethoxycarbonyl-R110 SEQ ID NO:5
T12 chain: DEVD

[12] = target: T13, N-Ac-DEVD-N′-(ethylthio)carbonyl-R110 SEQ ID NO:5
T13 chain: DEVD

[13] = target: T14, N-Ac-DEVD-N′-ethoxycarbonyl-R110 SEQ ID NO:5
T14 chain: DEVD

B1: recombinant human caspase-7 (protein)
chain: AKPDRSSFVPSLFSKKKKNVTMRSIKTTRDRVPTYQYNMNFEKLGKCIIINNKNFDKVTGMGVRNGTDKDAEALFKCFRSLGFDVIVYNDCSCAKMQDLLKKASEEDHTNAACFACILLSHGEENVIYGKDGVTPIKDLTAHFRGDRCKTLLEKPKLFFIQACRGTELDDGIQADSGPINDTDANPRYKIPVEADFLFAYSTVPGYYSWRSPGRGSWFVQALCSILEEHGKDLEIMQILTRVNDRVARHFESQSDDPHFHEKKQIPCVVSMLTKELYFSQ
B1 was tested. Which “fluorescent signal of cleaved substrate” value [1] did it give?
Its value is “Caspase-7 gave virtually no signal”.

B2: Recombinant ICE protein (protein)
chain: NPAMPTSSGSEGNVKLCSLEEAQRIWKQKSAEIYPIMDKSSRTRLALIICNEEFDSIPRRTGAEVDITGMTMLLQNLGYSVDVKKNLTASDMTTELEAFAHRPEHKTSDSTFLVFMSHGIREGICGKKHSEQVPDILQLNAIFNMLNTKNCPSLKDKPKVIIIQACRGDSPGVVWFKDSVGVSGNLSLPTTEEFEDDAIKKAHIEKDFIAFCSSTPDNVSWRHPTMGSVFIGRLIEHMQEYACSCDVEEIFRKVRFSFEQPDGRAQMPTTERVTLTRCFYLFPGH
Which Km [2] does the source give for B2 here?
Its Km is 6 µM.

What about the Vmax [2] of the same protein?
The Vmax was 14 nmol/min.

What about the Km [3] of the same protein?
The Km was 70 µM.

What about the Vmax [3] of the same protein?
The Vmax was 4 nmol/min.

And the Km ((Z-VAD)2-Rhodamine 110)?
Its Km is 21 µM.

What about the Vmax ((Z-VAD)2-Rhodamine 110) of the same protein?
The Vmax was 9 nmol/min.

And the Km [4]?
The Km was 32 µM.

What about the Vmax [4] of the same protein?
Its Vmax is 96 nmol/min.

And the Km [5]?
Its Km is 12 µM.

And the Vmax [5]?
The Vmax was 9 nmol/min.

B3: Recombinant CPP32 protein (protein)
chain: SGISLDNSYKMDYPEMGLCIIINNKNFHKSTGMTSRSGTDVDAANLRETFRNLKYEVRNKNDLTREEIVELMRDVSKEDHSKRSSFVCVLLSHGEEGIIFGTNGPVDLKKITNFFRGDRCRSLTGKPKLFIIQACRGTELDCGIETDSGVDDDMACHKIPVEADFLYAYSTAPGYYSWRNSKDGSWFIQSLCAMLKQYADKLEFMHILTRVNRKVATEFESFSFDATFHAKKQIPCIVSMLTKELYFYH
How did the Km [5] turn out when B3 was run?
The Km was 154 µM.

What about the Vmax [5] of the same protein?
The Vmax was 160 nmol/min.

And the Km [6]?
Its Km is 60 µM.

B4: recombinant human caspase-3 (protein)
chain: B3 chain
B4 was tested. Which “Cleavage by Caspase-3” value [7] did it give?
Its value is “Fair”.

And the “Cleavage by Caspase-3” value [8]?
Its value is “Good”.

And the “signal above the enzyme blank value (fluorescence of cleaved substrate)” value [1]?
Its value is “a signal that was about 5-fold above the enzyme blank value”.

What about the “Cleavage by Caspase-3” value [9] of the same protein?
The value was “Poor”.

And the “amount of enzyme needed for cleavage, against tri- and tetrapeptide substrates” value [9]?
Its value is “a 50-fold greater amount of enzyme than needed for tri- and tetrapeptide substrates”.

What about the “Cleavage by Caspase-3” value [10] of the same protein?
The value was “Good”.

And the “Cleavage by Caspase-3” value [11]?
Its value is “Good”.

What about the “Cleavage by Caspase-3” value [12] of the same protein?
Its value is “Good”.

And the “Cleavage by Caspase-3” value [13]?
The value was “Good”.

B5: recombinant human caspase-8 (protein)
chain: SESQTLDKVYQMKSKPRGYCLIINNHNFAKAREKVPKLHSIRDRNGTHLDAGALTTTFEELHFEIKPHDDCTVEQIYEILKIYQLMDHSNMDCFICCILSHGDKGIIYGTDGQEAPIYELTSQFTGLKCPSLAGKPKVFFIQACQGDNYQKGIPVETDSEEQPYLEMDLSSPQTRYIPDEADFLLGMATVNNCVSYRNPAEGTWYIQSLCQSLRERCPRGDDILTILTEVNYEVSNKDDKKNMGKQMPQPTFTLRKKLVFPSD
With B5 as the protein, how does the “signal to background ratio (fluorescence of cleaved substrate)” value [1] read?
The value was “signal to background ratios of about 13 for caspase-6 to about 26 for caspase-8”.

B6: recombinant human caspase-6 (protein)
chain: AFYKREMFDPAEKYKMDHRRRGIALIFNHERFFWHLTLPERRGTCADRDNLTRRFSDLGFEVKCFNDLKAEELLLKIHEVSTVSHADADCFVCVFLSHGEGNHIYAYDAKIEIQTLTGLFKGDKCHSLVGKPKIFIIQACRGNQHDVPVIPLDVVDNQTEKLDTNITEVDAASVYTLPAGADFLMCYSVAEGYYSHRETVNGSWYIQDLCEMLGKYGSSLEFTELLTLVNRKVSQRRVDFCKDPSAIGKKQVPCFASMLTKKLHFFPKSN
For B6, which “signal to background ratio (fluorescence of cleaved substrate)” value [1] is on record?
Its value is “signal to background ratios of about 13 for caspase-6 to about 26 for caspase-8”.
